Test results as given in patent publication WO2021136808A1 (dated 2021).

Target: T1, human CTLA-4 (AA Ala37-Ser160) - Fc Tag fusion protein (AcroBiosystem, catalog no. CT4-H5255) (human, UniProt P16410 37-160)
T1 construct: range 37-160; Bought reagent, coated to the ELISA plate wells as capture reagent; also called human CTLA-4 - Fc Tag fusion protein; not shown: Fc tag
T1 sequence (looked up): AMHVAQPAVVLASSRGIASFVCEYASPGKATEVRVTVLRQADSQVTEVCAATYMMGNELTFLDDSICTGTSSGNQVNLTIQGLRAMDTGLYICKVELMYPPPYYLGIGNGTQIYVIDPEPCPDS
Test: in-house sandwich ELISA, CTLA-4-Fc coated on plate, HHC MET in rat plasma

binding result: binds
B1: HHC MET (VHH)
chain: EVQLVESGGGLVQAGGSLRLSCAASGGTFSFYGMGWFRQAPGKEQEFVADIRTSAGRTYYADSVKGRFTISRDNAKNTVYLQMNSLKPEDTAVYYCAAEMSGISGWDYWGQGTQVTVSSGGGGSGGGSEVQLVESGGGLVQAGGSLRLSCAASGGTFSFYGMGWFRQAPGKEQEFVADIRTSAGRTYYADSVKGRFTISRDNAKNTVYLQMNSLKPEDTAVYYCAAEMSGISGWDYWGQGTQVTVSS
notes: Single polypeptide expressed in E. coli; In the ELISA it stood as free protein in rat plasma (calibration standards and samples); also called free HHC MET
